Experimental data reported in paper PMC10570030 (Nucleic Acids Research, 2023).
Where no end group is shown, it is not given here. Me3 = trimethyl-lysine (Kme3); Me2 = dimethyl-lysine (Kme2)

B1: PogZ(1117–1410) (domain or fragment)
chain: SNAASLPLSMIVAIDEISLFLDTEVLSSDDRKENALQTVGTGEPWCDVVLAILADGTVLPTLVFYRGQMDQPANMPDSILLEAKESGYSDDEIMELWSTRVWQKHTACQRSKGMLVMDCHRTHLSEEVLAMLSASSTLPAVVPAGCSSKIQPLDVCIKRTVKNFLHKKWKEQAREMADTACDSDVLLQLVLVWLGEVLGVIGDCPELVQRSFLVASVLPGPDGNINSPTRNADMQEELIASLEEQLKLSGEHSESSTPRPRSSPEETIEPESLHQLFEGESETESFYGFEEADLDLMEI

What was measured:
[1] = molecular target: LEDGF/p52 (UniProt O75475-2 1-333); test: NMR titration
[2] = molecular target: LEDGF/p75 (UniProt O75475 1-530); test: SEC

Binder	Kd [1]	binding result [2]
SAPATGGVK(Me)KPHRY [histone H3 peptide SAPATGGVKme1KPHRY]	5.4 mM	–
SAPATGGVK(Me2)KPHRY [histone H3 peptide SAPATGGVKme2KPHRY]	2.4 mM	–
SAPATGGVK(Me3)KPHRY [histone H3 peptide SAPATGGVKme3KPHRY]	2.7 mM	–
SAPATGGVKKPHRY [histone H3 peptide SAPATGGVKKPHRY, unmodified]	6 mM	–
B1	–	binds
